Measurements reported in paper PMC10662374, “Structures of the interleukin 11 signalling complex reveal gp130 dynamics and the inhibitory mechanism of a cytokine variant” (Nature Communications, 2023).
Values joined by “and” are separate entries in the source; they are usually repeats but may differ in a detail not shown here. Equal values may be shown once. Blank lines part the entries; values can stand above or below the binder they belong to.

Experiments:
[1] = molecular target: the molecule itself; assay: cell-based or functional assay
[2] = molecular target: T1, IL-11RαD1-D3 (C-terminally truncated form of human IL-11Rα, structured extracellular domains D1-D3) (human, UniProt Q14626 23-319); assay: SPR; Biacore T200; biotinylated IL-11-avi constructs immobilised on a streptavidin chip; IL-11RαD1-D3 injected, two-fold dilutions from 500 nM; 25 °C (298 K); TBS pH 8.5 + 0.05% Tween; 30 μL/min; 1:1 kinetic model; n = 2; conditions: both partners purified
T1 construct: interleukin 11 receptor subunit alpha, human, domains D1-D3 (C-terminally truncated extracellular region); Expressed with a honeybee-melittin signal peptide; not shown: His8, N-terminal, cleaved
T1 sequence: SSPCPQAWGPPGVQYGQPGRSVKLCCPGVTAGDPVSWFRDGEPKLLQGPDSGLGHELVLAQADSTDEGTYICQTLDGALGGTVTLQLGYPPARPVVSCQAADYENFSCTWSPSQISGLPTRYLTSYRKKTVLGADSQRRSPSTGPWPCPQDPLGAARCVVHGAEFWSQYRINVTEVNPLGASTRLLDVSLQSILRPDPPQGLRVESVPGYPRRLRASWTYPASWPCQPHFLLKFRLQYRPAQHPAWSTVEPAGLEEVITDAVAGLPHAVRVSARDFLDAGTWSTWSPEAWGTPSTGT

[3] = molecular target: T2, IL-11Rα D1-D3 (human, UniProt Q14626 23-319); assay: SPR; biotinylated IL-11Δ10-avi or IL-11Δ10/Mutein-avi immobilised on a streptavidin chip (SAHC 1500M); IL-11Rα D1-D3 flowed over, nine-point two-fold dilution series from 500 nM; Biacore T200, 25 °C, TBS pH 8.5 + 0.05% Tween, 30 uL/min; 1:1 kinetic model; two replicate dilution series (run 1, run 2); conditions: both partners purified
T2 construct: interleukin 11 receptor subunit alpha, human, C-terminally truncated form with the structured extracellular domains D1-D3; Secreted with a honeybee-melittin signal peptide; tag removed with TEV protease; N-glycosylated; also called IL11RA; RA; not shown: His8, N-terminal, cleaved
T2 sequence: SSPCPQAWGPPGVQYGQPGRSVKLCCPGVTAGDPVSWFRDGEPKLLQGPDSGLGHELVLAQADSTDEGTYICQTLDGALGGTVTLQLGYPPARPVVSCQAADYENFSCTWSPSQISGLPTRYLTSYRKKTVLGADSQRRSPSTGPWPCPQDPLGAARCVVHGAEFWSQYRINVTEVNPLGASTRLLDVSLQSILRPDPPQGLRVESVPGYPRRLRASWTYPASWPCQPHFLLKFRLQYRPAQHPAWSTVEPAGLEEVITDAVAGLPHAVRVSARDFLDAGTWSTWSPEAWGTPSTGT

[4] = molecular target: T3, IL-11Rα_(D1-D3) (human, UniProt Q14626 23-319, N-linked glycans (N105, N172 seen in the structures)); assay: SPR; Biacore T200, 25 °C, TBS pH 8.5 + 0.05% Tween, 30 μL/min; biotinylated IL-11-avi on a streptavidin chip, IL-11Rα_(D1-D3) flowed over (two-fold dilutions from 500 nM), 1:1 kinetic model, n = 2; conditions: both partners purified
T3 construct: Secreted with a honeybee-melittin signal peptide; also called C-terminally truncated form of IL-11Rα; not shown: His8, N-terminal, cleaved
T3 sequence: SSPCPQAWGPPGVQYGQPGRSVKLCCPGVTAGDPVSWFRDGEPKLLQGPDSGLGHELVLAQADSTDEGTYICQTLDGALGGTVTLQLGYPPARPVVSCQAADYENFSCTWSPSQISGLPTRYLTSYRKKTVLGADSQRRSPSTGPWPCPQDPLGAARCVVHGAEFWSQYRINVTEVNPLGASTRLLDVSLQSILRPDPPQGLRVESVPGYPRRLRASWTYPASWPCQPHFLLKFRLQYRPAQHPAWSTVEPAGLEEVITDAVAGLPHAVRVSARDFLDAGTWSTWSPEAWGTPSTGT

[5] = molecular target: T3, IL-11Rα_(D1-D3); assay: cell-based or functional assay
[6] = molecular target: T3, IL-11Rα_(D1-D3); assay: ITC; cytokine in the syringe (10-fold above IL-11Rα), IL-11Rα_(D1-D3) in the cell at 10 μM, TBS pH 8.5, 1:1 interaction model, n = 3; conditions: both partners purified

Kd [2]: 78 nM
kon [2]: 1.4e+06 M⁻¹ s⁻¹
B2: biotinylated IL-11Δ10-avi (ligand, human)
chain: SPDPRAELDSTVLLTRSLLADTRQLAAQLRDKFPADGDHNLDSLPTLAMSAGALGALQLPGVLTRLRADLLSYLRHVQWLRRAGGSSLKTLEPELGTLQARLDRLLRRLQLLMSRLALPQPPPDPPAPPLAPPSSAWGGIRAAHAILGGLHLTLDWAVRGLLLLKTRL
modifications: biotin on the C-terminal avitag
notes: interleukin 11, human, N-terminally truncated form (Δ10), as Dm1; numbers count on: the mature protein; also called IL11Δ10 - Avitag; source: E. coli BL21(DE3), biotinylated in the cells, purified as IL-11Δ10; not shown: avitag, C-terminal, kept; His6, N-terminal, cleaved

koff [4]: 0.11 s⁻¹
B4: biotinylated IL-11Δ10-avi (ligand, human)
chain: SPDPRAELDSTVLLTRSLLADTRQLAAQLRDKFPADGDHNLDSLPTLAMSAGALGALQLPGVLTRLRADLLSYLRHVQWLRRAGGSSLKTLEPELGTLQARLDRLLRRLQLLMSRLALPQPPPDPPAPPLAPPSSAWGGIRAAHAILGGLHLTLDWAVRGLLLLKTRL
modifications: biotin on the C-terminal avitag
notes: interleukin 11 (IL-11), human, N-terminally truncated form IL-11Δ10; numbers count on: the mature protein; source: E. coli BL21(DE3), biotinylated, purified as IL-11Δ10; not shown: His6, N-terminal, cleaved; avitag, C-terminal, kept

Further lines, the binder ahead of its results:

B1: IL-11_(Δ10/W147A)/IL-11Rα_(D1-D3)/gp130_(D1-D3) trimer (complex, human)
chain 1: SPDPRAELDSTVLLTRSLLADTRQLAAQLRDKFPADGDHNLDSLPTLAMSAGALGALQLPGVLTRLRADLLSYLRHVQWLRRAGGSSLKTLEPELGTLQARLDRLLRRLQLLMSRLALPQPPPDPPAPPLAPPSSAAGGIRAAHAILGGLHLTLDWAVRGLLLLKTRL
chain 2: SSPCPQAWGPPGVQYGQPGRSVKLCCPGVTAGDPVSWFRDGEPKLLQGPDSGLGHELVLAQADSTDEGTYICQTLDGALGGTVTLQLGYPPARPVVSCQAADYENFSCTWSPSQISGLPTRYLTSYRKKTVLGADSQRRSPSTGPWPCPQDPLGAARCVVHGAEFWSQYRINVTEVNPLGASTRLLDVSLQSILRPDPPQGLRVESVPGYPRRLRASWTYPASWPCQPHFLLKFRLQYRPAQHPAWSTVEPAGLEEVITDAVAGLPHAVRVSARDFLDAGTWSTWSPEAWGTPSTGT
chain 3: GELLDPCGYISPESPVVQLHSNFTAVCVLKEKCMDYFHVNANYIVWKTNHFTIPKEQYTIINRTASSVTFTDIASLNIQLTCNILTFGQLEQNVYGITIISGLPPEKPKNLSCIVNEGKKMRCEWDGGRETHLETNFTLKSEWATHKFADCKAKRDTPTSCTVDYSTVYFVNIEVWVEAENALGKVTSDHINFDPVYKVKPNPPHNLSVINSEELSSILKLTWTNPSIKSVIILKYNIQYRTKDASTWSQIPPEDTASTRSSFTVQDLKPFTEYVFRIRCMKEDGKGYWSDWSEEASGITYEDR
EC50 of STAT3 activation (pSTAT3, flow cytometry) by IL-11_(Δ10/W147A) in Ba/F3 cells stably expressing human gp130 and IL-11Rα [1]: 610 pM

B3: biotinylated IL-11Δ10/Mutein-avi (ligand, human)
chain: SPDPRAELDSTVLLTRSLLADTRQLAAQLRDKFPADGDHNLDSLPTLPAIDYALGALQLPGVLTRLRADLLSYLRHVQWLRRAGGSSLKTLEPELGTLQARLDRLLRRLQLLMSRLALPQPPPDPPAPPLAPPSSAAGGIRAAHAILGGLHLTLDWAVRGLLLLKTRL
modifications: biotin on the C-terminal avitag
notes: interleukin 11, human, N-terminally truncated form IL-11Δ10 with the Mutein changes; numbers count on: the mature protein; not shown: His6, N-terminal, cleaved; avitag, C-terminal, kept
Kd [3]: 35.8 nM and 30.8 nM and 33.3 nM
koff [3]: 0.035 s⁻¹ and 0.0335 s⁻¹
kon [3]: 937000 M⁻¹ s⁻¹ and 1.14e+06 M⁻¹ s⁻¹ and 1.04e+06 M⁻¹ s⁻¹

B5: biotinylated IL-11Δ10/Mutein-avi (ligand, human)
chain: SPDPRAELDSTVLLTRSLLADTRQLAAQLRDKFPADGDHNLDSLPTLPAIDYALGALQLPGVLTRLRADLLSYLRHVQWLRRAGGSSLKTLEPELGTLQARLDRLLRRLQLLMSRLALPQPPPDPPAPPLAPPSSAAGGIRAAHAILGGLHLTLDWAVRGLLLLKTRL
modifications: biotin on the C-terminal avitag
notes: interleukin 11, human, Δ10 with W147A and 58PAIDY62, as Dm7; numbers count on: the mature protein; also called IL11Δ10/Mutein - Avitag; source: E. coli BL21(DE3), biotinylated in the cells, purified as IL-11Δ10; not shown: avitag, C-terminal, kept; His6, N-terminal, cleaved
Kd [2]: 33 nM
kon [2]: 1e+06 M⁻¹ s⁻¹

B6: IL-11_(Δ10/Mutein) (ligand, human)
chain: SPDPRAELDSTVLLTRSLLADTRQLAAQLRDKFPADGDHNLDSLPTLPAIDYALGALQLPGVLTRLRADLLSYLRHVQWLRRAGGSSLKTLEPELGTLQARLDRLLRRLQLLMSRLALPQPPPDPPAPPLAPPSSAAGGIRAAHAILGGLHLTLDWAVRGLLLLKTRL
notes: interleukin 11 (IL-11), human, IL-11Δ10 with W147A and AB loop residues 58-62 AMSAG changed to PAIDY; numbers count on: the mature protein; Parent construct IL-11Δ10; also called IL-11 Mutein; not shown: His6, N-terminal, cleaved
IC50 of inhibition of IL-11Δ10 (20 ng/mL) mediated STAT3 activation (pSTAT3, flow cytometry) in Ba/F3 cells stably expressing human gp130 and IL-11Rα; competes with IL-11 for IL-11Rα and gp130 [5]: 850 nM
Kd [6]: 38 nM
